This is an account of results in PMC7108666.

One data set concerns the target T1, Put3 (UniProt P25502 1-979).
T1 sequence: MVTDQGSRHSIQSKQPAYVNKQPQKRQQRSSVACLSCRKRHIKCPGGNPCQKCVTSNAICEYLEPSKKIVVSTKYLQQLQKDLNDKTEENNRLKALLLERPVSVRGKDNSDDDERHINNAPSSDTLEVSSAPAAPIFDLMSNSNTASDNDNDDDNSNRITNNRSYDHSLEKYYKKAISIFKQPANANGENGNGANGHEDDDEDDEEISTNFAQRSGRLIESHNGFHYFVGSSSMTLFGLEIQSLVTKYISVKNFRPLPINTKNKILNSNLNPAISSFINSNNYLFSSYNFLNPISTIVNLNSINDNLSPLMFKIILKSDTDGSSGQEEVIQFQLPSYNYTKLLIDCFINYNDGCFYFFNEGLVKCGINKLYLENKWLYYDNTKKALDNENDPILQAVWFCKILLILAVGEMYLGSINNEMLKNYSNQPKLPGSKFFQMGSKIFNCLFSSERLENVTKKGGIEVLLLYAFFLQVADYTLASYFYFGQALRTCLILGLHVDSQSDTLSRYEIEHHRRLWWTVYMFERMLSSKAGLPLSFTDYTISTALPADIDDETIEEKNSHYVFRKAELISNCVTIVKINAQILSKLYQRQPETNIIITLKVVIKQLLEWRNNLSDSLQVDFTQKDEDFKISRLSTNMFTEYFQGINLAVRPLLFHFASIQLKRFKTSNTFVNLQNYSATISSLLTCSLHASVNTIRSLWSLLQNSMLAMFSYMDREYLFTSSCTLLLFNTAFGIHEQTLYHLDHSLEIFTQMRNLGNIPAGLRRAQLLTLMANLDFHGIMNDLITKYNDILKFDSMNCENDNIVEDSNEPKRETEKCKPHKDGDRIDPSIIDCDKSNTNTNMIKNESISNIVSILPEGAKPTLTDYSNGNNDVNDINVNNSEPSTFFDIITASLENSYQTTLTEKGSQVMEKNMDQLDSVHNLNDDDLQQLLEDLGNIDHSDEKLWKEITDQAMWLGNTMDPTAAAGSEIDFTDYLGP
Description: EMSA. In general terms: In EMSA bound probe runs differently from free probe, usually more slowly.

Another data set concerns the target Put3;Myo3 (Saccharomyces cerevisiae?;Saccharomyces …, UniProt P25502;P36006 1-979;1-1272, |). Briefly: EMSA.

B1: UAS oligonucleotide (dsDNA)
DNA 1: TCTCGGGAAGCCAACTCCGAAGC
DNA 2: GCTTCGGAGTTGGCTTCCCGAGA
In the case of B1, the binding result in the data set with Put3 is “binds”.

B2: GRSI oligonucleotide (dsDNA)
DNA 1: GTGTTCCGGGGTTGGATGCGGAA
DNA 2: TTCCGCATCCAACCCCGGAACAC
With B2, the binding result with Put3 and with Put3;Myo3 was “binds” in each case.
